Reference: publication PMC2711601

Target: ribosomes of dog pancreas rough microsomes (ribosomal pellet after digitonin solubilisation) (dog (endogenous in dog pancreas microsomes))
Assay: co-sedimentation

Substance | percent pelleted with ribosomes [%] | percent in the ribosome pellet [%]
Sec61β, subunit of the Sec61p translocon complex (dog pancreas microsomes) (from UniProt P60467 1-96) (natural protein) | 80 | –
RAMP4 (ribosome-associated membrane protein 4, dog pancreas microsomes) (from UniProt A0A8I3PRN4 1-66) (natural protein) | – | 10 to 20
